Experimental data from the nanobody polyreactivity screen of Harvey et al. (2022).

experiment: yeast display, Sf9 membrane polyspecificity reagent, FACS + sequencing; frameworks hold sequencing errors
How it was run: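 Nanobodies came from a synthetic yeast display library in Saccharomyces cerevisiae BJ5465, induced with galactose for 36–48 hours and stained for 1 hour at 4 °C with 10% biotinylated, detergent-solubilized Sf9 membrane reagent. Cells were enriched on streptavidin microbeads and then FACS-sorted, with low and high (top ~1%) gates set on anti-HA fluorescence for expression and streptavidin fluorescence for reagent binding. Each polyreactivity label reflects the gate a clone came from. Genes were amplified by colony PCR, sequenced by MiSeq 2 × 250 and filtered by CDR length.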

| Sequence | polyreactivity (PSR sort gate) |
| --- | --- |
| QVQLVESGGGLVQAGGSLRLSCAASGFIFYPYAMGWYRQAPGKVRELVAVITSGGRTYYADSVKGRFTISRDNAKNTVYLQMNSLKAEDTAVYYCAARYGRIHWKANWPEYGYWGQGTQVTVSS | low polyreactivity |
| QVQLVESGGGLVQAGGSLRLSCAASGFIFYQYAKGWYRQAPGKERELVATISFRGGRTYYADSVKGRFTITRDTAKNTVYLQMNSLKPDETAVYYCNAKRVSSRFYKWDYYWGQGTQVTVSS | high polyreactivity |
| QVQLVESGGGLVQAGGSLRLSCAASGFIFYRNTMGWYRQAPGKEREFFAAITRSGGITRYADSVKGRFTISRDNAKNTVYLQMNSLKPEDTAVYYCAARRWIADPGRIMDYWGQGTQVTVSS | high polyreactivity |
| QVQLVESGGGLVQAGGSLRLSCAASGFIFYRYAIGWYRQEPGKERELVAAITRSGRSTYYADSVKGRFTISRDNAKNTVYLQMNSLKAEDTAVYYCAVFGSYWWRGLSEDYWGQGTQVTVSS | high polyreactivity |
| QVQLVESGGGLVQAGGSLRLSCAASGFIFYRYAMGWYRQAPGKERELVAAISWSGGTTYYADSVKGRFTISRDNAKNTVYLQMNSLKPEDTAVYYCAARSVPSPERGFYYWGQGTQVTVSS | high polyreactivity |
| QVQLVESGGGLVQAGGSLRLSCAASGFIFYRYAMGWYRQAPGKERELVAAISYSGGSTYYADSVKGRFTISRDNAKNTVYLQMISLKPEDTAVYYCAAGSKYRYDYWGQGTQVTVSS | high polyreactivity |
| QVQLVESGGGLVQAGGSLRLSCAASGFIFYRYAMGWYRQAPGKERELVAAITGGGSTYYADSVKGRFTISRDNAKNTVYLQMNSLKPEDTAVYYCNAVTYGWTAYDKGKRYDYWGQGTQVTVSS | high polyreactivity |
| QVQLVESGGGLVQAGGSLRLSCAASGFIFYRYAMGWYRQAPGKERELVAAITSDGSTYYADSVKGRFTISRDNAKNTVYLQMNSLKPEDTAVYYCNAERWGNSVGNYWGQGTQVTVSS | high polyreactivity |
| QVQLVESGGGLVQAGGSLRLSCAASGFIFYRYARGWYRQAPGKERELVAVISRGGNTYYADSVKGRFTISRDNAKNTVYLQMNSLKPEDTAVYYCNKRLRDSYRLYYYWGQGTQVTVSS | high polyreactivity |
| QVQLVESGGGLVQAGGSLRLSCAASGFIFYRYTLGWSRQAPGKERELVAAITSGGSTYYADSVKGRFTISRDNAKNTVYLQMNSLKPEDSAVYYCAAAYQRWFNRRDYWGQGTQVTVSS | high polyreactivity |
| QVQLVESGGGLVQAGGSLRLSCAASGFIFYSNAMGWYRPAPGKERELVAAISWGGGRTYYADSVKGRFTISRDNAKNTVYLQMNSLKPEDTAVYYCAAAGYHSGKGGGYWGQGTQVTVSS | high polyreactivity |
| QVQLVESGGGLVQAGGSLRLSCAASGFIFYSYAMGWSRQAPGKERELVAAISSTGTSTYYADSVKGRFTISRDNAKNTVYLQMNSLKPEDTAVYYCNAGYAFDPDETYDYWGQGTQVTVSS | low polyreactivity |
| QVQLVESGGGLVQAGGSLRLSCAASGFIFYSYAMGWYRQAPGKEREFVAAISRAGSTNYADSVKGRFTISRDNAKNTVYLQMNSLIPEDTAVYYCNKGYHSWSRLSQFGWSYDYWGQGTQVTVSS | high polyreactivity |
| QVQLVESGGGLVQAGGSLRLSCAASGFIFYSYAMGWYRQAPGKEREFVASICGGTGSTYYADSVKGRFTISRDNAKNTVYLQMNSLIPEDTAVYYCNARIVHSFRYDYWGQGTQVTVSS | low polyreactivity |
| QVQLVESGGGLVQAGGSLRLSCAASGFIFYSYAMGWYRQAPGKERELVAAISGSGGSTYYADSVKGRFTISRDNAKNTVYLQMNSLKPEDTAVYYCAAALTFRMDYWGQGTQVTVSS | high polyreactivity |
| QVQLVESGGGLVQAGGSLRLSCAASGFIFYSYAMGWYRQAPGKERELVAAISWSGGRTYYADSVKGRFTISRDNAKNTVYLQMNSLKPEDTAVYYCNADDYSFSFTVPYYIEYVYWGQGTQVTVSS | high polyreactivity |

| Sequence | polyreactivity (PSR sort gate) |
| --- | --- |
| QVQLVESGGGLVQAGGSLRLSCAASGFIFYSYDMGWYRQAPGKERELVAAIDSRGVNTYYADSVKGRFTISRDNAKNTVYLQMNILKPEDTAVYYCNVDAITWWDWEDFDYWGQGTQVTVSS | low polyreactivity |
| QVQLVESGGGLVQAGGSLRLSCAASGFIFYTNAMGWYRQAPGKERELVAAISRGGTTYYADSVKGRFTISRDNAKNTVYLQMNSLKPEDTAVYYCAKAWPDHWYSRYDYWGQGTQVTVSS | low polyreactivity |
| QVQLVESGGGLVQAGGSLRLSCAASGFIFYTYAMGWYRQAPGKERELVAAIRRGGSTYYADSVKGRFTISRDNAKNTVYLQMNSLKPEDTAVYYCNARIPYKAKTNHFGYWGQGTQVTVSS | high polyreactivity |
| QVQLVESGGGLVQAGGSLRLSCAASGFIFYYNAMGWYRQAPGKERELVAAISTDGGSTYYADSVKGRFTISRDNAKNTVYLQMNSLKPEDTAVYYCAANRYKRYDYWGQGTQVTVSS | low polyreactivity |
| QVQLVESGGGLVQAGGSLRLSCAASGFIFYYNTMGWYRQAPGKERELVASITWSGDTTYYADSVKGRFTISRDNAKNTVYLQMNSLKPEDTAVYYCAAVHYYPYRRYDYWGQGTQVTVSS | low polyreactivity |
| QVQLVESGGGLVQAGGSLRLSCAASGFIFYYYAMGWYRQAPGKEREFVAGISRSGGSTYYADSVKGRFTISRDNAKNTVYLQMNSLKPEDTAVYYCGEFWTYWGYGQYDYWGQGTQVTVSS | low polyreactivity |
| QVQLVESGGGLVQAGGSLRLSCAASGFIFYYYAMGWYRQAPGKERELVAAISSGGSTYYADSVKGRFTISRDNAKNTVYLQMNSLKPEDTAVYYCNARGFYRGYTYYYWGQGTQVTVSS | high polyreactivity |
| QVQLVESGGGLVQAGGSLRLSCAASGFIFYYYAMGWYRQAPGKERELVAAISSRGGITYYADSVKGRFTISRDNAKNTVYLQMNSLKPEDTAVYYCAVDFRPGYDYWGQGTQVTVSS | low polyreactivity |
| QVQLVESGGGLVQAGGSLRLSCAASGFIFYYYAMGWYRQAPGKERELVAAISSSGTSTYYADSVKGRFTISRDNAKYTVYLQMNSLKPEDTAVYYCAAYSSHREDYWGQGTQVTVSS | high polyreactivity |
| QVQLVESGGGLVQAGGSLRLSCAASGFIFYYYAMGWYRQAPGKERELVATITSGGGTYYADSVKGRFTISRDNAKNTVYVQMISLKPEDTAVYYCAKRDLEQSAFLGYDYWGQGTQVTVSS | low polyreactivity |
| QVQLVESGGGLVQAGGSLRLSCAASGFIFYYYAMGWYRQAPGKEREMFAAITQGGGSTYYADSVKGRFTISRDNAKNTVYFQMNSLKPEDTAVYYCAAVKRVYAHCRAFSSDFYYWGQGTQVNVSS | high polyreactivity |
| QVQLVESGGGLVQAGGSLRLSCAASGFIFYYYTMGWYRQAPGKERELVAAISSGGSTYYADSVKGRFTISRDNAKNTVYLQMNSLKPEDTAVYYCNKRYPSPEYNYWGQGTQVTVSS | high polyreactivity |
| QVQLVESGGGLVQAGGSLRLSCAASGFIFYYYTMGWYTQAPGKERELVAAISKSGGNTYYADSVKGRFTISRDNAKNTVYLQMNSLKPEVTAVYYCAASRYNTVTYYYSGQGTQVTVSS | high polyreactivity |
| QVQLVESGGGLVQAGGSLRLSCAASGFIIEVNAMGWYRQAPGKERELVARIDWSGGSTYYADSVKGRFTISRDNAKNTVYLQMNSLKPEDTAVYYCNADWTYADPNEYGYWGQGTQVTVSS | low polyreactivity |
| QVQLVESGGGLVQAGGSLRLSCAASGFIIGGNPMGWYRQAPGKVRELVAAITGGGSTYYADSVKGRFTISRENAKNTVYLQMNSLKPEDTAVYYCNAGRVLRLAYNYWGQGTQVTVSS | low polyreactivity |
| QVQLVESGGGLVQAGGSLRLSCAASGFIIGSYTMGWYRQAHGKERELVASITKRGGSTYYADSVKGRFTISRDNAKNTVYLQMNSLKPEDTSVYYCAATYWFSHRSRYDYWGQGTQVTVSS | high polyreactivity |
